Results taken from US20120219551A1.

Assays:
[1] = target: FcγRIIIA, soluble monomeric protein (extracellular region joined to the linker-AVITAG sequence) (human) (UniProt P08637); experiment: yeast display FACS, biotinylated receptor chased with unlabeled receptor
[2] = target: soluble monomeric FcγRIIIA (extracellular region of FcγRIIIA joined to the linker-AVITAG sequence) (human) (UniProt P08637); experiment: ELISA
[3] = target: soluble dimeric FcγRIIB-Fc fusion protein (extracellular domain of FcγRIIB fused to hinge-CH2-CH3 of human IgG2) (human) (UniProt P31994); experiment: ELISA
Sequence of soluble dimeric FcγRIIB-Fc fusion protein (extracellular domain of FcγRIIB fused to hinge-CH2-CH3 of human IgG2) (human) (P31994 43-217): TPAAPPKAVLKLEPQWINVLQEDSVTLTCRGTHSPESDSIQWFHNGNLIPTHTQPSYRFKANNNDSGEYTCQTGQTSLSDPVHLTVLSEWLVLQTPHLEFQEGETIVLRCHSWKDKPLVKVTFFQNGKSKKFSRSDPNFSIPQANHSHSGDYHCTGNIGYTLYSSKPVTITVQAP

[4] = target: soluble monomeric FcγRIIIA (extracellular region of FcγRIIIA joined to the linker-AVITAG sequence) (human) (UniProt P08637); experiment: BIAcore: FcγRIIIA at 200 nM and 800 nM over ch4-4-20 captured on BSA-FITC; separate fit, average of the two concentrations (Table 14 prints 0.075)
[5] = target: soluble dimeric FcγRIIB-Fc fusion protein (extracellular domain of FcγRIIB fused to hinge-CH2-CH3 of human IgG2) (human) (UniProt P31994); experiment: ELISA of FcγRIIB binding, OD printed beside the sensorgram (Table 15 prints 0.08)
[6] = target: soluble monomeric FcγRIIIA (extracellular region of FcγRIIIA joined to the linker-AVITAG sequence) (human) (UniProt P08637); experiment: BIAcore: FcγRIIIA at 200 nM and 800 nM over ch4-4-20 captured on BSA-FITC; separate fit, average of the two concentrations (Table 14 prints 90)
[7] = target: FcγRIIIA on natural killer cells of human donor PBMC (human) (UniProt P08637); experiment: cell-based or functional assay
Sequence of FcγRIIIA on natural killer cells of human donor PBMC (human) (P08637 17-254): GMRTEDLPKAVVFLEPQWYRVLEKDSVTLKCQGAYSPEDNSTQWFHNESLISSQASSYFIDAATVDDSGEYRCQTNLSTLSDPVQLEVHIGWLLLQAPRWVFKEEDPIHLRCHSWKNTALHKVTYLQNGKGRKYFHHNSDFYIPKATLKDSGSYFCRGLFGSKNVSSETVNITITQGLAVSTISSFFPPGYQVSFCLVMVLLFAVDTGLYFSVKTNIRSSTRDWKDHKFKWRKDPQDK

[8] = target: soluble monomeric FcγRIIIA (extracellular region of FcγRIIIA joined to the linker-AVITAG sequence) (human) (UniProt P08637); experiment: SPR (BIAcore), Ab captured on BSA-FITC, separate fit 200/800 nM
[9] = target: soluble dimeric FcγRIIB-Fc fusion protein (extracellular domain of FcγRIIB fused to hinge-CH2-CH3 of human IgG2) (human) (UniProt P31994); experiment: as above
[10] = target: soluble dimeric FcγRIIB-Fc fusion protein (extracellular domain of FcγRIIB fused to hinge-CH2-CH3 of human IgG2) (human) (UniProt P31994); experiment: BIAcore: FcγRIIB-Fc fusion at two concentrations over ch4-4-20 captured on BSA-FITC; separate fit, average of the two concentrations (Table 15 prints 0.085)

Sequence of soluble monomeric FcγRIIIA (extracellular region of FcγRIIIA joined to the linker-AVITAG sequence) (human) (P08637 17-208): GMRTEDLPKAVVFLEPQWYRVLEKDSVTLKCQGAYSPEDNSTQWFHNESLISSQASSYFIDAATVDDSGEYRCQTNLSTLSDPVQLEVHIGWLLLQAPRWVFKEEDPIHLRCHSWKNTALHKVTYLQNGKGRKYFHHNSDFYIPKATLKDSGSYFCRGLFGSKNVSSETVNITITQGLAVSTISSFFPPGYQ
Sequence of FcγRIIIA, soluble monomeric protein (extracellular region joined to the linker-AVITAG sequence) (human) (P08637 17-208 F176V limits assumed, form in doubt): as the sequence (P08637 17-208) above, with F160V counted along it

Fc variant P396L (from UniProt P01857 1-330) (antibody)
loss of cell staining after 1 minute with unlabeled FcγRIIIA [1]: 50%

ch4-4-20 Mut11 (R255L, F243L) (antibody)
ELISA, OD [2]: 0.37 OD | ELISA, OD [3]: 0.08 OD | koff [4]: 0.073 s⁻¹ | ELISA, OD [5]: 0.1 OD | Kd [6]: 91.8 nM | ADCC, % [7]: 32% | Kd [8]: 90 nM | koff [8]: 0.075 s⁻¹ | kon [8]: 822000 M⁻¹ s⁻¹ | Kd [9]: 82.3 nM | koff [9]: 0.1 s⁻¹

ch4-4-20 wild type (chimeric anti-fluorescein antibody, IgG1)
koff [10]: 0.0847 s⁻¹ | ELISA, OD [2]: 0.5 OD | ELISA, OD [3]: 0.4 OD | ADCC, % [7]: 17.5% | Kd [8]: 319 nM | Kd [9]: 61.4 nM | koff [9]: 0.085 s⁻¹
